Measured values as given in patent US20140323691A1.

Columns and labels:
[1] = biological target: BxpB (exosporium basal layer protein) (Bacillus anthracis); assay: densitometry of anti-BxpB and anti-eGFP immunoblots
[2] = biological target: BxpB (exosporium basal layer protein) (Bacillus anthracis)
[3] = biological target: BxpB (exosporium basal layer protein) (Bacillus anthracis); assay: LC-MS/MS and immunoblot analyses of BxpB-BclA and BxpB-(BclA NTD-eGFP) complexes

| Substance | fusion proteins per molecule of BxpB (band 1) (per molecule of BxpB) [1] | fusion proteins per molecule of BxpB (band 2) (per molecule of BxpB) [1] | fusion proteins per molecule of BxpB (band 3) (per molecule of BxpB) [1] | frequency of multiple attachments [2] | NTDs attached to a single molecule of BxpB (per molecule of BxpB) [3] |
| --- | --- | --- | --- | --- | --- |
| BclA NTD-enhanced green fluorescence protein (eGFP) fusion protein | 1 | 2 | 3 | 18% |  |
| BclA (collagen-like glycoprotein of the Bacillus anthracis exosporium nap) |  |  |  | 57% | < 3 |
